System: IgE antibodies from soybean-allergic patients
Assay: Immunoblotting of two-dimensional electrophoresis pattern of soybean proteins with patient serum
Format: binding, human
Settings: spot in 2D electrophoresis gel of soybean proteins; patient serum compared with healthy subject serum
How it was run: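 Soybean proteins were separated by 2-D electrophoresis, transferred to PVDF and blocked in 5% skim milk/PBST. Blots were probed with 3% serum from soybean-allergic patients or healthy subjects for 1 h at room temperature, then anti-human IgE-HRP (1:2500). Chemiluminescent substrate was used, with fluorescent image scanning.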

Row | specific binding to IgE antibodies from soybean-allergic patients | Molecule
1 | specific binding | transketolase, chloroplastic (protein) MASSTSSISLSQALLRPTTTSLPSSSSSLRLTPTLRPTPPALSLRRRLTTSIRAAASVKTVEKATADAALVEKSVNTIRFLAIDAVEKANSGHPGLPMGCAPMGHVLYDETMKYNPKNPFWFNRDRFVLSAGHGCMLQYALLHLAGFDSVKEEDLREFRQWGSRTPGHPENFETPGIEVTTGPLGQGIANAVGLALAEKHLAARYNKPDNEIVDHYTYAILGDGCQMEGIANEACSLAGHWGLGKLIAFYDDNHISIDGNTEIAFTESVDSRFEGLGWHVIWVKNGNNGYDDIRAAIKEAKAVKDKPTLIKVTTTIGYGSPNKANSYSVHGSALGAKEVDATRQNLGWSHEPFHVPEDVKKHWSRHTPEGAALEAEWNAKFAEYEKKYKEEAAELKSIINGEFPAGWEKALPTYTPESPADATRNLSQTNLNALAKVLPGLLGGSADLASSNMTLLKMFGDFQKDTPAERNVRFGVREHGMGAICNGIALHSPGLIPYCATFFVFTDYMRGAIRLSALSEAGVIYVMTHDSIGLGEDGPTHQPIEHLASFRAMPNILMLRPADGNETAGAYKVAVLNRKRPSILALSRQKLPQLPGTSIEGVEKGGYTISDNSTGNKPDVILIGTGSELEIAAKAADDLRKEGKAVRVVSLVSWELFDEQSEAYKESVFPAAVSARVSIEAGSTFGWEKIVGAKGKAIGIDRFGASAPAGRIYKEFGITKEAVVAAAKELI
2 | specific binding | chaperonin CPN60-2, mitochondrial (protein, Glycine max, spot also identified as chaperonin CPN60-2, mitochondrial-like isoform X1) MYRFATSLASKARIARSSTQQIGSRVTWNRNYAAKDIKFGVEARALMLKGVEELADAVKVTMGPKGRNVVIEQSFGAPKVTKDGVTVAKSIEFKDKVKNIGASLVKQVANATNDVAGDGTTCATILTKAIFTEGCKSVAAGMNAMDLRRGINMAVDAVVTNLKSRARMISTSEEIAQVGTISANGEREIGELIAKAMEKVGKEGVITISDGKTLYNELEVVEGMKLDRGYISPYFITNQKNQKCELEDPLIIIHEKKISSINAIVKVLELALKRQRSLLIVAEDVESDALATLILNKLRAGIKVCAIKAPGFGENRKSGLQDLAVLTGGQLITEELGLNLEKVDLDLFGSCKKITISKDDTVILDGAGDKKAIEERCEQIRSAIENSTSDYDKEKLQERLAKLSGGVAVLKIGGASEAEVGEKKDRVTDALNATKAAVEEGIVPGGGVALLYASSELDKLQTANFDQKIGVQIIQNALKTPVHTIASNAGVEGAVVVGKLLEQNDPDLGYDAAKGEYVDMVKTGIIDPLKVIRTALVDAASVSSLMTTTEAVVSELPKDDKDVPAMGGGMGGMDY

— US20250262297A1, “ALLERGY ANTIGEN AND EPITOPE THEREOF” (HOYU CO., LTD., priority 2017, published 2025)
